Test results reported in patent US20230272099A1 (Chugai, published 2023).
Where a chain is given by its changes, count along the chain named.

T1: human FcgRIIa type H extracellular domain (human, UniProt P12318 34-217)
T1 construct: extracellular domain; also called hFcgRIIaH
T1 sequence (looked up): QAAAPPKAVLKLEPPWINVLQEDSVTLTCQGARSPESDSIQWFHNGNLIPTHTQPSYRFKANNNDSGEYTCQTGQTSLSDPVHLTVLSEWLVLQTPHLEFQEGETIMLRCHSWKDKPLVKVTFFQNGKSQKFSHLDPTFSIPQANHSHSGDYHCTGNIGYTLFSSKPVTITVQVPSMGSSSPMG

T2: human FcgRIIb extracellular domain (human, UniProt P31994 43-217)
T2 construct: extracellular domain; also called hFcgRIIb
T2 sequence (looked up): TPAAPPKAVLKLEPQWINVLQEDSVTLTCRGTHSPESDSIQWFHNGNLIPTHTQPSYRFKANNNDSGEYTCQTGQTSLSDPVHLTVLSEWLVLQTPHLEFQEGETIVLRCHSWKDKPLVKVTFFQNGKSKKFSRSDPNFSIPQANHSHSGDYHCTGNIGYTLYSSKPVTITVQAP

T3: human FcgRIIa type R extracellular domain (human, UniProt P12318 34-217)
T3 construct: extracellular domain; also called hFcgRIIaR
T3 sequence (looked up): T1 sequence (looked up) with H134R

B1: A375-SCF030/B167-Lamlib (antibody, human IgG1, lambda)
heavy: EVQLVESGGGLVKPGGSLRLSCAASGFTFSTFTMNWVRQAPGKGLEWVSSISSKSTYIEYADSFKVRFTISRDNAKNSLYLQMNSLRAEDTAVYYCARYGAKNFLNWVFDYWGQGTLVTVSSASTKGPSVFPLAPSSKSTSGGTAALGCLVKDYFPEPVTVSWNSGALTSGVHTFPAVLQSSGLYSLSSVVTVPSSSLGTQTYICNVNHKPSNTKVDKKVEPKSCDKTHTCPPCPAPELWNGPSVFLFPPKPKDTLMISRTPEVTCVVVDVSDEDPEVKFNWYVDGVEVHNAKTKPREELYNSTYRVVSVLTVLHRDWLNGKEYKCKVSNTALPKPIEKTISKAKGQRREPQVYTLPPSREEMTKNQVSLTCLVKGFYPSDIAVEWESNGQPENNYKTTPPVLDSDGSFFLYSKLTVDKSRWQQGNVFSCSVMHEALHNHYTQKSLSLSP
light: QSALTQPPSASGSPGQTVTISCTGTRYDVGYYEYVSWYQQHPGKAPKLMIYETSKRLSGVPDRFSGSKSGNTASLTVSGLQAEDEADYYCSSYRYEHQVSFGGGTKLTVLGQPKAAPSVTLFPPSSEELQANKATLVCLISDFYPGAVTVAWKADSSPVKAGVETTTPSKQSNNKYAASSYLSLTPEQWKSHRSYSCQVTHEGSTVEKTVAPTECS
B2: A375-SCF032/B167-Lamlib (antibody, human IgG1, lambda)
heavy: B1 heavy with L239Y, W240L, N241G, P243D, T255V, V269I, D273H, L300Q, T312P, T331K
light: B1 light
B3: A375-SCF040/B167-Lamlib (antibody, human IgG1, lambda)
heavy: B1 heavy with R316Q, R348P, D418K
light: B1 light
notes: copies: 2 + 2
B4: A375-SCF041aPh/B167-Lamlib (antibody, human IgG1, lambda)
heavy: B1 heavy with K219R, L300Q, R316Q, T331K
light: B1 light
B5: A375-SCF041a/B167-Lamlib (antibody, human IgG1, lambda)
heavy: B1 heavy with K219R, W240L, L300Q, R316Q, T331K
light: B1 light
B6: A375-SCF039a/B167-Lamlib (antibody, human IgG1, lambda)
heavy: B1 heavy with K219R, R316Q
light: B1 light
B7: A375-SCF039/B167-Lamlib (antibody, human IgG1, lambda)
heavy: B1 heavy with R316Q
light: B1 light
B8: A375-SCF042a/B167-Lamlib (antibody, human IgG1, lambda)
heavy: B1 heavy with K219R, W240L, L300Q, R316Q, T331K, R348P, D418K
light: B1 light
notes: copies: 2 + 2
B9: A375-SCF033/B167-Lamlib (antibody, human IgG1, lambda)
heavy: B1 heavy with L239Y, W240L, N241G, G242D, P243D, T255V, D273H, L300Q, T312P, T331K
light: B1 light

target: T4, human FcgRIIIa V158 extracellular domain (human, UniProt P08637 17-208); assay: SPR 25C
T4 construct: extracellular domain; also called hFcgRIIIaV
Description: (§1) Biacore T200 (GE Healthcare) was used to evaluate the binding activity to the respective human Fcγ receptor (hereafter referred to as FcγR). Measurement was performed at 25° C. using 50 mM phosphate, 150 mM NaCl, 0.05 w/v %-P20, pH 7.4 as buffer. About 1000 RU of antibody was captured using a sensor chip immobilized with CaptureSelect™ Human Fab-lambda Kinetics Biotin Conjugate (Thermo Fisher Scientific) as a molecule for ligand capturing. Human FcγR was diluted to 8 nM for FcγRIa and 1000 nM for other FcγR in the measurement buffer, and it was interacted to the captured antibody. The binding activity of each antibody to FcγR was assessed by calculating the binding amount of FcγR (RU) per unit amount of antibody using Biacore T200 Evaluation Software 2.0.

T4 sequence (P08637 17-208 F176V): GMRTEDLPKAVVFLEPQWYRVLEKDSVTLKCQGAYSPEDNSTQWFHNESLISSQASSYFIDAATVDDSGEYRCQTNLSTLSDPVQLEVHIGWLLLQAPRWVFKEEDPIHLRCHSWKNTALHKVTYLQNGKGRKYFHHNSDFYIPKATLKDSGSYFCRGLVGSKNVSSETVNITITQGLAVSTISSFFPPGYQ

| binding per 1RU antibody [RU] | relative binding (A375-G1T3/B167-Lamlib=1) | Binder |
| --- | --- | --- |
| 0.002 | 0.03 | B1 |
| -0.0007 | -0.01 | B2 |
| 0.0013 | 0.02 | B3 |
| 0.0005 | 0.01 | B4 |
| 0.0022 | 0.03 | B5 |
| 0.0013 | 0.02 | B6 |
| 0.0013 | 0.02 | B7 |
| 0.0014 | 0.02 | B8 |
| 0.0002 | 0 | B9 |

target: T1, human FcgRIIa type H extracellular …; assay: SPR 25C
Description: as §1

| binding per 1RU antibody [RU] | relative binding (A375-G1T3/B167-Lamlib=1) | Binder |
| --- | --- | --- |
| 0.0533 | 0.94 | B1 |
| 0.003 | 0.05 | B2 |
| 0.0454 | 0.8 | B3 |
| 0.0371 | 0.65 | B4 |
| 0.0571 | 1.01 | B5 |
| 0.0542 | 0.96 | B6 |
| 0.0535 | 0.94 | B7 |
| 0.0522 | 0.92 | B8 |
| 0.0103 | 0.18 | B9 |

target: T5, human FcgRIIIa F158 extracellular domain (human, UniProt P08637 17-208); assay: SPR 25C
T5 construct: extracellular domain; also called hFcgRIIIaF
Description: as §1

T5 sequence (P08637 17-208): as the sequence (P08637 17-208 F176V) above, with V160F counted along it

| binding per 1RU antibody [RU] | relative binding (A375-G1T3/B167-Lamlib=1) | Binder |
| --- | --- | --- |
| 0.0017 | 0.08 | B1 |
| -0.0007 | -0.03 | B2 |
| 0.001 | 0.05 | B3 |
| 0.0007 | 0.03 | B4 |
| 0.0009 | 0.04 | B5 |
| 0.0012 | 0.06 | B6 |
| 0.0008 | 0.04 | B7 |
| 0.0003 | 0.01 | B8 |
| 0 | 0 | B9 |

target: T2, human FcgRIIb extracellular domain; assay: SPR 25C
Description: as §1

| binding per 1RU antibody [RU] | relative binding (A375-G1T3/B167-Lamlib=1) | Binder |
| --- | --- | --- |
| 0.0532 | 4.85 | B1 |
| 0.0782 | 7.14 | B2 |
| 0.0465 | 4.24 | B3 |
| 0.035 | 3.2 | B4 |
| 0.0433 | 3.95 | B5 |
| 0.054 | 4.93 | B6 |
| 0.0531 | 4.85 | B7 |
| 0.0393 | 3.59 | B8 |
| 0.0979 | 8.94 | B9 |

target: T3, human FcgRIIa type R extracellular …; assay: SPR 25C
Description: as §1

| binding per 1RU antibody [RU] | relative binding (A375-G1T3/B167-Lamlib=1) | Binder |
| --- | --- | --- |
| 0.0532 | 1.15 | B1 |
| -0.0004 | -0.01 | B2 |
| 0.0446 | 0.96 | B3 |
| 0.0371 | 0.8 | B4 |
| 0.0376 | 0.81 | B5 |
| 0.0554 | 1.2 | B6 |
| 0.0542 | 1.17 | B7 |
| 0.0327 | 0.71 | B8 |
| 0.0255 | 0.55 | B9 |

target: T6, human FcgRIa extracellular domain (human, UniProt P12314 16-292); assay: SPR 25C
T6 construct: extracellular domain; also called hFcgRIa
Description: as §1

T6 sequence (P12314 16-292): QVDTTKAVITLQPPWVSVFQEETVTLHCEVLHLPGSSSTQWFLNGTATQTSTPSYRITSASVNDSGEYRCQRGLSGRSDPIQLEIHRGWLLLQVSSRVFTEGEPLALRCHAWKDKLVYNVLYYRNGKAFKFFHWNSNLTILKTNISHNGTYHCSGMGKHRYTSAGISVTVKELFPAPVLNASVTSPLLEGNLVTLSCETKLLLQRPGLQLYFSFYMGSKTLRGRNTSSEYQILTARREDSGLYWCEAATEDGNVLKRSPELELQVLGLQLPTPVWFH

| binding per 1RU antibody [RU] | relative binding (A375-G1T3/B167-Lamlib=1) | Binder |
| --- | --- | --- |
| 0.002 | 0.02 | B1 |
| 0.0049 | 0.06 | B2 |
| 0.0016 | 0.02 | B3 |
| 0.0013 | 0.02 | B4 |
| 0.0446 | 0.55 | B5 |
| 0.0018 | 0.02 | B6 |
| 0.0018 | 0.02 | B7 |
| 0.0396 | 0.49 | B8 |
| 0.0033 | 0.04 | B9 |

target: human FcRn (human, UniProt P55899 24-290; P61769 21-119); assay: SPR 25C pH 6.0, steady state
Description: Biacore T200 (GE Healthcare) was used to assess the binding activity to human FcRn. Measurement was performed at 25° C. using 50 mM phosphate, 150 mM NaCl, 0.05 w/v %-P20, pH 6.0 as buffer. Human FcRn proteins used for this determination were prepared by the procedure described in WO2010107110. About 400 RU of antibody was captured using a sensor chip immobilized with CaptureSelect™ Human Fab-lambda Kinetics Biotin Conjugate (Thermo Fisher Scientific) as a molecule for ligand capturing, followed by the binding of human FcRn diluted in measuring buffer. The activity of the respective antibodies to bind FcRn was assessed by calculating KD(mol/L) by the steady-state model using Biacore T200 Evaluation Software 2.0.

| Kd [nM] | Binder |
| --- | --- |
| 863 | B1 |
| 966 | B2 |
| 1460 | B3 |
| 1130 | B4 |
| 1100 | B5 |
| 1110 | B6 |
| 1090 | B7 |
| 1490 | B8 |
| 874 | B9 |
